The data set is described as follows: soluble on expression in E. coli; label from the status in PepcDB or PDB records.
As for “SLGGLKLGDLCRLKGQETNTLQGLGLVVGLQGTGDGDAAPKGRALARMMQLMGGPMAVDAAGRLNIEDVGDAKNVAMVFVSATIPTVGAQQGDVLDVTINAISAKSLDGGYLMLTPMLGPRADNPTVYGMAEGRISVSADSPPTSATIQGGLKMETSVRASYVHDNRITLVIDRDFADFSTAHMIEEEVNSLTSFTIGDRNVSRLASPNHQGTGQDGNIALARAIDQLHVEVVIPPTYRDNPIKFIAFLLDIVIPLSNRGKRVVINEADGVVVIGEDVEIAPVLVTHRNLRIEAGGGGRFVEVGPDGTPAAAKLKSLADALGALDVPTEDLIAIIKTLKAKGDLYGEVIFR”, the “soluble on expression in E. coli” value is recorded as “not soluble”.

As to “MQNKIVKIGNIDVANDKPFVLFGGMNVLESRDMAMQVCEAYVKVTEKLGVPYVFKASFDKANRSSIHSYRGPGMEEGLKIFQELKDTFGVKIITDVHEIYQCQPVADVVDIIQLPAFLARQTDLVEAMAKTGAVINVKKPQFLSPSQMGNIVEKIEECGNDKIILCDRGTNFGYDNLIVDMLGFSVMKKASKGSPVIFDVTHSLQCRDPFGAASSGRRAQVTELARSGLAVGIAGLFLEAHPNPNQAKCDGPSALPLSALEGFVSQMKAIDDLVKSFPELDTSIGSHHHHHH”, the “soluble on expression in E. coli” value is “soluble”.

For “MEFTDPYTVDSLQCFNGFHYRGYRINQSDTDKVNRLIAIIRQEREKNIGPAAGDIIEYTCRNGDWFQSAHIEEICDGHFKICLSGSIPFCYESGDGVGYNVHEGIWTYPKRAALKPAGIREKQFRTWGHAGKCANGEVYFMACVRAWQYTEPEPLYGRYTTRNWSKYHINRQPDPEHDGEFFYMTEGFTLYSREELDRLTGILHGKLFDGIYSNSLVLWGYHMKWEILTEQEWNETKAEIHISFLGKSPVKIITCDDTHTITVYKKK”, the “soluble on expression in E. coli” value is on record as “not soluble”.

For “MGSDKIHHHHHHMKRENLHQPFEISFSELAESLLKEHEHTFFELVYILSGTGIQWINNNMFPYHDGHLFMITPGDTHSFEIHTTTKFVDIKFNDIYIHSSVFGAENIQRLEFILQHANHQPGCILRNKVDKLLVKPMIEAIIREYINRNLYSKEIITQIINTIIIVVARNIAMFLPEQVDECSEDKSLDILQYIQANIYKTGKIRAKDISQHFGISENYLGRYIKKHTNETMQQYILNYKLKLVENRLLHSQMRICEIVEELGFTDESHLNKFFKKYRGCSPSNFRKNNLK”, the “soluble on expression in E. coli” value is reported as “not soluble”.

For “MAHHHHHHMWQHHNLSSPTLGPREAKPTVQTSRRGCMRSDAWCSSLAGGGHDDPSESVPNSRVSPRASSFAPPQRTAPSPTESTSQELFELQNCNHHKQQQKQQLVIRQEDIRDDDFQRLEVLGDGSYSVVVSARHLPTQQLVALKEVSRHRLRELKLEKQLQWEINVHRTLRHPNVVRMLSYYITPQTVVLVLEMCPGGTLLQKLKTMPGGRFDERRASRYVRQAARALTYLHGHGIAHRDLKLENIFLDAHGVARLGDFGWSKALVEPTVEQDLSSHHDNFGTAPCSAAKDVSPLCSGGRGRLTVCGTLDYLSPEMLIGMPHTFKTDVWSLGVMLAEMLTGAPPFYCVSQQDTLNAIREAAPHLGDDVQMSSLARELVLAMLQKNPDARPTMAEVLQHPWTRQNGEKKKKKK”, the “soluble on expression in E. coli” value is recorded as “soluble”.

For “MDMEVDEAISGTSSSRLAPIEEVKPTPKQIKRIAAHSHVKGLGIDTETQEAHYEAAGFVGQAPARTAASIVVDMIRLKCMAGRAVLIAGPPATGKTAIALAMSQELGDGVPFVPLVASEVFSNEVKKTEVLMRSFRRAIGLRVKETKDVYEGEVTELSPVEASDNSGMGKTISHLVLSLKTAKGSKQLKLDPSIYDSILKQRVEVGDVIYIEANSGIVKRVGRCDVYASEFDLEADEFVPMPKGDVRKSKDIVQNVSLHDLDIANARPQGRQGDVSNIVSQLMTPKKTEVTDRLRSEINKVVNEYIESGVAELMPGVLFIDEVHMLDVECFTYLYRALESPMAPVVVFATNRGTTTVRGLGDKAPHGIPPEMLDRLMIIPTMKYNEEDIRKILVHRTEAENVQFEEKAFDLLTRLCAQTCGREVIEVEDVDRCTKLFMDRGESLKKAEEEMRQPKNKK”, the “soluble on expression in E. coli” value is recorded as “not soluble”.

On to “GMYQTIEGFLQSWTYETESTQKMLDVLTDESLSQEIAPGHWTLGRVAWHIVTAIPVILSGTGLKFEGETKDYPVPTSAKTIADGYRKVNTAFVEALQSEWTDKDLTTINDFFGRPMPNSIFLMTLINHQNHHRGQMTVLMRQAGLTVPGVYGPAKEEWATAGMEAPKM”, for which the “soluble on expression in E. coli” value is listed as “soluble”.

The record behind these values is the DeepSol protein solubility set.
